# Measured values as given in patent US20240425589A1, “CYTOTOXICITY-INDUCING THERAPEUTIC AGENT FOR USE IN TREATMENT OF CANCER” (CHUGAI SEIYAKU KABUSHIKI KAISHA, priority 2021, published 2024).
# Key:
# MC38/CLDN6 = assay: xCELLigence mechanism assay with KLH/CD137 bispecific antibody; format: cell-based, mouse; details: 1 nM
# Method: The mechanism of T-cell dependent growth inhibition mediated by the anti-CLDN6/Dual-Fab tri-specific antibodies was assessed by cell proliferation assay using an xCELLigence RTCA MP instrument (ACEA Biosciences).
# Mouse colon cancer cell line MC38/CLDN6 expressing human CLDN6 was used as target cells. Spleens were collected aseptically from hCD3 transgenic mice and hCD3/hCD137 knock-in mice. The spleen was ground in RPMI-1640 medium containing 10% FBS, passed through a 70-μm cell strainer, and then centrifuged (at 1200 rpm for 10 minutes at room temperature) to isolate spleen cells. The isolated spleen cells were hemolyzed, then T cells alone were isolated using CD3 MicroBeads (Miltenyi Biotec), and used as effector cells.
# The background was measured by adding the culture medium to an E-Plate 96 plate (Roche Diagnostics) at 50 μL/well, and then 5×10^3 target cells were plated at 50 μL/well. After culturing overnight, 1 nM (final concentration) of CS4135 together with the KLH/CD137 bispecific antibody at a concentration selected from 100 nM or 500 nM (final concentration) were added at 25 μL/well, respectively. […] Cell growth was monitored every 10 min using xCELLigence over 48 hours during the incubation of the plates. The rate of cell growth inhibition (CGI: %) was determined from the cell index value according to the following formula: […]
# UWB1.289 = assay: LDH release cytotoxicity on olaparib-treated UWB1.289; format: cell-based; details: UWB1.289, olaparib 3 μM three days vs DMSO, human PBMC
# Method: (§1) The effect of the enhanced induction of CLDN6 expression in BRCA1-deficient ovarian cancer cell line UWB1.289, caused by the PARP inhibitor (olaparib), on the cytotoxic activity of anti-CLDN6/Dual-Fab tri-specific antibody CS4135 was assessed.
# (§2) BRCA1-deficient ovarian cancer cell line UWB1.289 (ATCC) or BRAC1 wildtype ovarian cancer cell line OV-90 (ATCC) which express human CLDN6 were used as target cells.
# (§3) Each target cell (3×10^5 cells) were seeded at 5 mL into a 25 cm^2-flask. Two flasks were prepared for each target cell. After culturing overnight, olaparib was added at a final concentration of 3 μM to one of the two flasks. DMSO was added to the other flask. After incubating the flasks for three days, the target cells were recovered, and the cytotoxic activity of the CS4135 antibody was evaluated by […] (LDH) release assay using human PBMC as the effector cell.
# OV-90 = assay: LDH release cytotoxicity on olaparib-treated OV-90; format: cell-based; details: OV-90, olaparib 3 μM three days vs DMSO, human PBMC
# Method: as §1, §2, §3
# CLDN6-LLC1 = CLDN6-LLC1 syngenic model, CS4135 single agent; format: in vivo, hCD137 KI/hCD3Tg mice
# Method: In this test, lung cancer cell line LLC1 forced to express claudin 6 (CLDN6) (CLDN6-LLC1) and hCD137 KI/hCD3Tg mice (described in the above-mentioned Example 7) were used. The CLDN6-LLC1 cell line was transplanted subcutaneously to the right flank of the mice, and the mice were divided into groups 7 days after transplantation. Individuals whose tumor volume reached 262 to 353 mm^3 were divided into groups. The vehicle and CS4135 were administered into the mouse tail vein 8 days after transplantation. PBS containing 0.05% Tween-20 was used as the vehicle.
# Tumor volume was measured 7, 10, and 14 days after transplantation, and the average tumor volume was indicated for each group. The tumor volume was calculated by the following equation: […]
# Tumor Growth Inhibition (TGI) was calculated by the following equation: […]
# The resected tumor tissue was weighed, and then a lymphocyte fraction was isolated. The lymphocyte fraction obtained by tissue disruption using a Tumor Dissociation Kit, mouse (Miltenyi Biotec) and then by use of a cell strainer was used. The obtained tumor-derived lymphocyte fraction was subjected to flow cytometry (FCM) analysis.
# FCM was used to analyze the number of tumor-derived T cells. The number of CD8-positive T cells per tumor weight was calculated using the tumor weight value and the number of CD8-positive T cells according to FCM. […]
# recombinant cyno CD137 = recombinant cyno CD137 (Macaca fascicularis, UniProt A9YYE7); assay: Biacore 8K SPR affinity to cyno CD137; format: binding, cynomolgus; details: cyno CD137, 37 degree C, pH 7.4
# Sequence of recombinant cyno CD137 (A9YYE7 1-254): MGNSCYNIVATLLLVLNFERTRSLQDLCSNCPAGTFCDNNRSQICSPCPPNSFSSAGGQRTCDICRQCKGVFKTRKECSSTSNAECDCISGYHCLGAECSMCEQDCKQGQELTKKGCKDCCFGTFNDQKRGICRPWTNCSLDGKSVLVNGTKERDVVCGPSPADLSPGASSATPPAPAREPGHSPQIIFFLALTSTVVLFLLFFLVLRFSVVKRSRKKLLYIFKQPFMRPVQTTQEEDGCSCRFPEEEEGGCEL
# Method: (§4) The binding affinity of the anti-CLDN6/Dual-Fab tri-specific antibody against recombinant human and cyno CD3eg (gamma and epsilon subunits of CD3) at pH 7.4 was determined at 25 degree C. using Biacore 8K instrument (GE Healthcare). The binding affinity of the anti-CLDN6/Dual-Fab tri-specific antibody against recombinant human and cyno CD137 at pH 7.4 was determined at 37 degree C. using Biacore 8K instrument (GE Healthcare). Anti-human Fc (GE Healthcare) antibody was immobilized onto all flow cells of a CM4 sensor chip using amine coupling kit (GE Healthcare). Tested antibody and analytes were prepared in ACES pH 7.4 containing 20 mM ACES, 150 mM NaCl, 0.05% Tween 20, 0.005% NaN3. Anti-CLDN6/Dual-Fab tri-specific antibody was captured onto the sensor surface by anti-human Fc. Antibody capture levels were aimed at 300 resonance unit (RU). Recombinant CD3eg and CD137 were injected at both 500 and 2000 nM, followed by dissociation. Sensor surface was regenerated each cycle with 3M MgCl2. […] Binding affinities were determined by processing and fitting the data to 1:1 binding model using Biacore Insight Evaluation software (GE Healthcare).
# recombinant human CD3eg = recombinant human CD3eg (Homo sapiens, UniProt P07766+P09693); assay: Biacore 8K SPR affinity to human CD3eg; format: binding; details: 25 degree C, pH 7.4
# Sequence of recombinant human CD3eg (P07766+P09693 fused): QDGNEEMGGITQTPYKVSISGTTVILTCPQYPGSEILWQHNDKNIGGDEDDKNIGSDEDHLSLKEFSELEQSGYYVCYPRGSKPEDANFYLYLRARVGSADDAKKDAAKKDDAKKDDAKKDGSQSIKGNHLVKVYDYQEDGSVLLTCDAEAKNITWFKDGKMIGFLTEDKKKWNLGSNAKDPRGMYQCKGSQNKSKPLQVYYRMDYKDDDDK
# Method: as §4
molecule,measurement,setting,value
"PPU4135: anti-CLDN6/Dual-Fab tri-specific antibody, chains SEQ ID NOs 42, 51, 56, 69; CS4135 same antibody (protein) chain 1: QVQLVESGGGVVQPGGSLRLSCAASGFTFSSYTMSWVRQAPGQGLEWMGTISSGGGRTYYPDSVKGRFTISRDNSKNTLYLQMNSLRDEDTAVYYCARGDYRYDGFAYWGEGTLVTVSSASTKGPSVFPLAPSSKSTSGGTAALGCLVEDYFPEPVTVSWNSGALTSGVHTFPAVLESSGLYSLSSVVTVPSSSLGTQTYICNVNHKPSNTKVDKRVEPKSCDKTHTCPPCPAPEAAGGPSVFLFPPKPKDTLMISRTPEVTCVVVDVSHEDPEVKFNWYVDGVEVHNAKTKPREEQYASTYRVVSVLTVLHQDWLNGKEYKCKVSNKALPAPIEKTISKAKGQPREPQVYTLPPSREEMTKNQVSLTCLVKGFYPSDIAVEWESNGQPENNYKTTPPVLDSDGSFFLYSKLTVDKSRWQQGNVFSCSVMHEALHNHYTQESLSLSP chain 2: DIQMTQSPSSLSASVGDRVTITCRASYNIDSYLAWYQQKPGKAPELLIYYSTLLVDGVPDRFSGSRSGTDFTLTISSLQPEDFATYYCQHYYSIPYTFGQGTKVEIERTVAAPSVFIFPPSDEQLKSGTAKVVCLLNNFYPREAKVQWKVDNALQSGNSKESVTEQDSKDSTYSLSSTLTLSKADYEKHKVYACEVTHQGLSSPVTKSFNRGEC chain 3: QVQLVESGGGLVQPGRSLRLSCAASGFKFSNVWFHWVRQAPGKGLEWVAQIKDYYNAYAAYYAPSVKGRFTISRDDSKNSIYLQMNSLKTEDTAVYYCHYVHYASASTLLPAEGVDAWGQGTTVTVSSASTKGPSVFPLAPSSKSTSGGTAALGCLVKDYFPEPVTVSWNSGALTSGVHTFPAVLKSSGLYSLSSVVTVPSSSLGTQTYICNVNHKPSNTKVDKRVEPKSCDKTHTCPPCPAPEAAGGPSVFLFPPKPKDTLMISRTPEVTCVVVDVSHEDPEVKFNWYVDGVEVHNAKTKPREEQYASTYRVVSVLTVLHQDWLNGKEYKCKVSNKALPAPIEKTISKAKGQPREPQVYTLPPSRKEMTKNQVSLTCLVKGFYPSDIAVEWESNGQPENNYKTTPPVLDSDGSFFLYSKLTVDKSRWQQGNVFSCSVMHEALHNHYTQKSLSLSP chain 4: DIVMTQSPLSLPVTPGEPASISCQPSQEVVHMNRNTYLHWYQQKPGQAPRLLIYKVSNRFPGVPDRFSGSGSGTDFTLKISRVEAEDVGVYYCAQGTSHPFTFGQGTKLEIKRTVAAPSVFIFPPSDEQLKSGTAEVVCLLNNFYPREAKVQWKVDNALQSGNSEESVTEQDSKDSTYSLSSTLTLSKADYEKHKVYACEVTHQGLSSPVTKSFNRGEC",cell growth inhibition rate,"MC38/CLDN6; T cells from hCD3/hCD137 knock-in mice vs hCD3 transgenic mice, no KLH/CD137 bispecific antibody",significantly higher
same,cell growth inhibition rate,"MC38/CLDN6; hCD3/hCD137 knock-in T cells, 500 nM KLH/CD137 bispecific antibody added",decreased to the same level as when using hCD3 transgenic mice-derived T cells
same,cytotoxic activity after addition of olaparib,UWB1.289,enhancement of cytotoxicity
same,cytotoxic activity after addition of olaparib,OV-90,no effect on cytotoxic activity
same,Tumor growth inhibition: TGI,"CLDN6-LLC1; 14 days after transplantation, 0.25 mg/kg iv day 8",71%
same,number of CD8-positive T cells per tumor weight,"CLDN6-LLC1; 14 days after tumor transplantation (Day 6 after administration), 0.25 mg/kg",significant increase
same,ka,recombinant cyno CD137,8350 M⁻¹ s⁻¹
same,kd,recombinant cyno CD137,0.00146 s⁻¹
same,ka,recombinant human CD3eg,78000 M⁻¹ s⁻¹
same,kd,recombinant human CD3eg,0.0266 s⁻¹
